Assay results from patent US20230265151A1, “GIP/GLP1 CO-AGONIST COMPOUNDS” (priority 2020, published 2023).
*1 amine or outer side, *2 acyl side, *3 side chain or, on linkers, in order; H or OH if unused. Where no end group is shown, it is not given here. Side-chain parts run from the residue outwards. [ ]: non-standard residue; d: D form. The star is where a group is joined. Decanoyl(10-(4-HOOC-PhO)) = O=C(O)c1ccc(OCCCCCCCCCC(=O)*)cc1; αMePhe(2-F) = C[C@](N)(Cc1ccccc1F)C(=O)O; γGlu = O=C(O)[C@H](CCC(=O)[*:2])N[*:1]; C14 diacid = O=C(O)CCCCCCCCCCCCC(=O)*; αMeY = C[C@](N)(Cc1ccc(O)cc1)C(=O)O; αMeL = CC(C)C[C@](C)(N)C(=O)O; Orn = NCCC[C@H](N)C(=O)O; AEEA = NCCOCCOCC(=O)O; Aib = CC(C)(N)C(=O)O

T1: human GIP receptor (human, UniProt P48546 22-466)
T1 sequence (looked up): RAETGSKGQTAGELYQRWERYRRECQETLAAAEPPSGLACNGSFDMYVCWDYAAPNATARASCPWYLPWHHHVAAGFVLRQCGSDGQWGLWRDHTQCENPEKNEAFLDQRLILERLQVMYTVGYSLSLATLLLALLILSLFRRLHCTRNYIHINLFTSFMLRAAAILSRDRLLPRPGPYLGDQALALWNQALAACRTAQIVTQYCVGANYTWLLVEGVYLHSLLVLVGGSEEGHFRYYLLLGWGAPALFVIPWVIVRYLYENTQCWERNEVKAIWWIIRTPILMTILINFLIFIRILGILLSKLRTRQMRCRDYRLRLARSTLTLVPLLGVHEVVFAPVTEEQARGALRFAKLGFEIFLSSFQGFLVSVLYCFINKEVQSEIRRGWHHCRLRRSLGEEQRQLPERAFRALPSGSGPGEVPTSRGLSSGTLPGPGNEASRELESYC

T2: human GIP receptor (human) (UniProt P48546)
T2 sequence (looked up): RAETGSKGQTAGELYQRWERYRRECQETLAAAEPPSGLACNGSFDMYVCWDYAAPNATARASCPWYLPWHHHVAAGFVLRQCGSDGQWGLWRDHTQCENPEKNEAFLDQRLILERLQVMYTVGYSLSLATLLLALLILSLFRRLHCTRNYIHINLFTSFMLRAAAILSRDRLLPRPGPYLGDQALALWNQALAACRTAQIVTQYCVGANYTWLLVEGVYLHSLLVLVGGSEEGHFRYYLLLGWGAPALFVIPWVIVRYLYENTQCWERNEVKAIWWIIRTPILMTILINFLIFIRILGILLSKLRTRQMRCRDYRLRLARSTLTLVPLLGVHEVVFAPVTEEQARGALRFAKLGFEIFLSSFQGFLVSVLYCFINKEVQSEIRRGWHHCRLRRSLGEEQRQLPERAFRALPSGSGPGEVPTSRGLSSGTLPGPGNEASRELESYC


Legend:
Assay in all cases: cell-based or functional assay
[1] = target: T1, human GIP receptor
[2] = target: human GLP-1 receptor (human, UniProt P43220 24-463)
[3] = target: human glucagon receptor (human, UniProt P47871 26-477)
human glucagon receptor, sequence (P47871 26-477): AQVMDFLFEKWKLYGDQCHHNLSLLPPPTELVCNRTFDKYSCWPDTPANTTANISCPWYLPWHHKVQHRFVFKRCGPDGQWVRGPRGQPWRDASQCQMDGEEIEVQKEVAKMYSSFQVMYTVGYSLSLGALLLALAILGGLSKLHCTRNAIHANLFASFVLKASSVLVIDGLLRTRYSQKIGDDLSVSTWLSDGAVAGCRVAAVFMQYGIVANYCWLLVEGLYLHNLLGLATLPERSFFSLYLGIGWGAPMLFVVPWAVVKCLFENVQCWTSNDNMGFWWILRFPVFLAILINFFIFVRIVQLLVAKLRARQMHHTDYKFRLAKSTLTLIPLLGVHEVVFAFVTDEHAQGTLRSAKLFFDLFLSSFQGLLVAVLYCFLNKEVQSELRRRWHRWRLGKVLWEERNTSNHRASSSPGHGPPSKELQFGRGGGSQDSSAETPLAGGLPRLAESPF

[4] = target: human glucagon receptor (human) (UniProt P47871)
[5] = target: T2, human GIP receptor (human)
[6] = target: hGLP-1R (Homo sapiens, UniProt P43220)

| Binder | cAMP EC50 (1.0% HSA) [1] [nM] | cAMP Emax (1.0% HSA) [1] [%] | cAMP EC50 (1.0% HSA) [2] [nM] | cAMP EC50 (1.0% HSA) [3] [nM] | cAMP EC50 [4] [nM] | cAMP EC50 [5] [nM] | cAMP Emax [5] [%] | cAMP EC50 [6] [nM] | cAMP Emax [6] [%] | cAMP Emax (1.0% HSA) [2] [%] |
| --- | --- | --- | --- | --- | --- | --- | --- | --- | --- | --- |
| YXEGTXTSDVXIXLDXKAQXKFIXXLIEGGPSSGAPPPS (Y-Aib-EGT-αMeF(2F)-TSDV-Aib-I-αMeL-LD-Orn-K((2-[2-(2-Amino-ethoxy)-ethoxy]-acetyl)2-CO-(CH2)12-CO2H)AQ-Aib-K((2-[2-(2-Amino-ethoxy)-ethoxy]-acetyl)2-CO-(CH2)12-CO2H)FI-(D-Glu)-αMeY-LIEGGPSSGAPPPS-NH2) [Example 386] | 2.08 | 81.3 | 17.7 | > 9950 | > 9950 | 0.0174 | 95.7 | 0.194 | 98.9 |  |
| YXEGTXTSDYXIXLDXKAQXKFIXXLIEGGPSSGAPPPS (Y-Aib-EGT-αMeF(2F)-TSDY-Aib-I-αMeL-LD-Orn-K((2-[2-(2-Amino-ethoxy)-ethoxy]-acetyl)2-(10-(4-carboxyphenoxy)decanoyl))AQ-Aib-K((2-[2-(2-Amino-ethoxy)-ethoxy]-acetyl)2-(10-(4-carboxyphenoxy)decanoyl))FI-(D-Glu)-αMeY-LIEGGPSSGAPPPS-NH2) [Example 393] | 0.547 | 66.7 | 9.18 | > 9950 | > 9950 | 0.0115 | 94.3 | 0.372 | 96.8 |  |
| YXEGTXTSDYXIXLDXKAQXKFIXXLIEGGPSSGAPPPS (Y-Aib-EGT-αMeF(2F)-TSDY-Aib-I-αMeL-LD-Orn-K((2-[2-(2-Amino-ethoxy)-ethoxy]-acetyl)-(γ-Glu)-(10-(4-carboxyphenoxy)decanoyl))AQ-Aib-K((2-[2-(2-Amino-ethoxy)-ethoxy]-acetyl)-(γ-Glu)-(10-(4-carboxyphenoxy)decanoyl))FI-(D-Glu)-αMeY-LIEGGPSSGAPPPS-NH2) [Example 372] | 3.75 | 90.6 | 38 | > 9950 | > 9950 | 0.0112 | 97.3 | 0.291 | 108 |  |
| YXEGTXTSDVXIXLDXKAQXKFIXXLIEGGPSSGAPPPS (Y-Aib-EGT-αMeF(2F)-TSDV-Aib-I-αMeL-LD-Orn-K((2-[2-(2-Amino-ethoxy)-ethoxy]-acetyl)-(γ-Glu)-(10-(4-carboxyphenoxy)decanoyl))AQ-Aib-K((2-[2-(2-Amino-ethoxy)-ethoxy]-acetyl)-(γ-Glu)-(10-(4-carboxyphenoxy)decanoyl))FI-(D-Glu)-αMeY-LIEGGPSSGAPPPS-NH2) [Example 378] | 7.46 | 81.2 | 47.7 | > 9950 | > 9950 | 0.0132 | 93.5 | 0.166 | 98.9 |  |
| Y[Aib]EGT[αMePhe(2-F)]TSDV[Aib]I[αMeL]LD[Orn]K([AEEA-AEEA-γGlu-Decanoyl(10-(4-HOOC-PhO))])AQ[Aib]EFI[dE][αMeY]LIEGGPSSGAPPPSK([AEEA-AEEA-γGlu-Decanoyl(10-(4-HOOC-PhO))])-NH2 [Example 380] | 9.23 | 93.5 | 28 | > 9950 | > 9950 | 0.0209 | 100 | 0.176 | 96.2 | 94.5 |
| Y[Aib]EGT[αMePhe(2-F)]TSDV[Aib]I[αMeL]LD[Orn]K([AEEA-AEEA-C14 diacid])AQ[Aib]EFI[dE][αMeY]LIK([AEEA-AEEA-C14 diacid])GGPSSGAPPPS-NH2 [Example 389] | 1.5 | 82 | 9.58 | > 9950 | > 9950 | 0.0178 | 94.6 | 0.19 | 92.4 |  |
| YXEGTXTSDXXIXLDXKAQXEFIXXLIEGGPSSGAPPPSK (Y-Aib-EGT-αMeF(2F)-TSD-4Pal-Aib-I-αMeL-LD-Orn-K((2-[2-(2-Amino-ethoxy)-ethoxy]-acetyl)2-(γ-Glu)-CO-(CH2)12-CO2H)AQ-Aib-EFI-(D-Glu)-αMeY-LIEGGPSSGAPPPSK((2-[2-(2-Amino-ethoxy)-ethoxy]-acetyl)2-(γ-Glu)-CO-(CH2)12-CO2H)-NH2) [Example 359] | 1.58 | 81 | 40.5 | > 9950 | > 10100 | 0.0261 | 103 | 1.18 | 104 | 95.1 |
| YXEGTXTSDYXIXLDXKAQXEFIXXLIEGGPSSGAPPPSK (Y-Aib-EGT-αMeF(2F)-TSDY-Aib-I-αMeL-LD-Orn-K((2-[2-(2-Amino-ethoxy)-ethoxy]-acetyl)-(γ-Glu)-(10-(4-carboxyphenoxy)decanoyl))AQ-Aib-EFI-(D-Glu)-αMeY-LIEGGPSSGAPPPSK((2-[2-(2-Amino-ethoxy)-ethoxy]-acetyl)-(γ-Glu)-(10-(4-carboxyphenoxy)decanoyl))-NH2) [Example 374] | 1.96 | 88.8 | 39.7 | > 9950 | > 9950 | 0.0135 | 96.2 | 0.269 | 106 |  |
| YXEGTXTSDYXIXLDXIAQXKFIXXLIEGGPSSGAPPPSK (Y-Aib-EGT-αMeF(2F)-TSDY-Aib-I-αMeL-LD-Orn-IAQ-Aib-K((2-[2-(2-Amino-ethoxy)-ethoxy]-acetyl)-(γ-Glu)-(10-(4-carboxyphenoxy)decanoyl))FI-(D-Glu)-αMeY-LIEGGPSSGAPPPSK((2-[2-(2-Amino-ethoxy)-ethoxy]-acetyl)-(γ-Glu)-(10-(4-carboxyphenoxy)decanoyl))-NH2) [Example 377] | 17.5 | 79.4 | 178 | > 9950 | > 9950 | 0.0205 | 92.8 | 0.356 | 100 | 110 |
| YXEGTXTSDXXIXLDXKAQXEFIXXLIEGGPSSGAPPPSK (Y-Aib-EGT-αMeF(2F)-TSD-4Pal-Aib-I-αMeL-LD-Orn-K((2-[2-(2-Amino-ethoxy)-ethoxy]-acetyl)-(y-Glu)-(10-(4-carboxyphenoxy)decanoyl))AQ-Aib-EFI-(D-Glu)-αMeY-LIEGGPSSGAPPPSK((2-[2-(2-Amino-ethoxy)-ethoxy]-acetyl)-(γ-Glu)-(10-(4-carboxyphenoxy)decanoyl))-NH2) [Example 362] | 0.936 |  | 29.9 | > 9950 | > 10100 | 0.0131 |  | 0.34 | 109 |  |
